Our source for the EC50 values is patent publication US20250122278A1, “ANTI-INTERLEUKIN-9 ANTIBODY AND USE THEREOF” (GUANGDONG KEGUANDA PHARMACEUTICAL TECHNOLOGY CO., LTD., priority 2022, published 2025).

The target of experiment [1] is T1, IL-9-His recombinant protein (UniProt P15248 19-144).
T1 construct: range 19-144; used as coating antigen in the ELISAs; also called IL9 (19-144)-His; not shown: His tag, C-terminal by the vector name
Nature of the experiment: ELISA on coated IL-9-His, OD450; unit taken from the x axis, the table prints none. A general note: In an ELISA, binding on a coated surface is turned into a signal by an enzyme label.

Experiment [2] deals with T2, biotin-conjugated IL-9-Fc (Biotin-IL-9-Fc) (UniProt P15248 19-144, biotin-conjugated (sites not given)).
T2 construct: range 19-144; also called Fc-IL-9 recombinant protein; Fc-IL-9; not shown: Fc tag (Fc2 in the vector name pLVX-Fc2-IL9 (19-144)-Puro)
The experiment can be described thus: flow cytometry blocking assay (IL-9-IL-9R blocking determination): serially diluted antibody against the binding of Biotin-IL-9-Fc to 293-IL-9R cells (IL-9R), MFI; unit taken from the x axis, the table prints none. (Flow cytometry measures light scatter and fluorescence of single cells or particles in a stream.)

T2 sequence (P15248 19-144 limits assumed, form in doubt): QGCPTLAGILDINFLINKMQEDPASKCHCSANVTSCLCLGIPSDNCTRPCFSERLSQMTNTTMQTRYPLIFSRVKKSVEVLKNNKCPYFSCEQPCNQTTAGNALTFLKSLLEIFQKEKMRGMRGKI
T1 sequence (P15248 19-144 limits assumed, form in doubt): as above

B1: 7F3com (antibody, V domains shown)
VH: QVQLVQSGAEVKKPGSSVKVSCKASGGTFSYYWIEWVRQAPGQGLEWMGEILPGSGTTNPNEKFKGRVTITADESTSTAYMELSSLRSEDTAVYYCARADYYGSDYVKFDYWGQGTLVTVSS
VL: DIQMTQSPSSLSASVGDRVTITCKASQHVITHVTWYQQKPGKAPKLLIYGTSYSYSGVPSRFSGSGSGTDFTLTISSLQPEDFATYYCQQFYEYPLTFGGGTKVEIK
notes: also called IL-9 positive control antibody; IL-9 positive antibody
The term EC50 denotes the concentration giving half of the maximal effect. For the molecule B1, the concentration giving a half-maximal response (EC50) was determined as 0.0459 µg/mL in experiment [1] and 10.2 µg/mL in experiment [2].
